Data as given in the Human Domainome abundance scans (Beltran et al. 2025).

B1: Segment polarity protein dishevelled homolog DVL-3, residues 2 to 81; numbered along this chain, Q92997 (parent)
chain: GETKIIYHLDGQETPYLVKLPLPAERVTLADFKGVLQRPSYKFFFKSMDDDFGVVKEEISDDNAKLPCFNGRVVSWLVSA

Variants of: B1
Assay: abundance fitness (aPCA) (normalised: wild type 0, dead -1); higher = more abundant; growth selection in yeast, the domain comes from the species named
Conditions: Homo sapiens

Abundance fitness: each site, then its substitutions
S79: P 0.16 | Q -0.248 | T -0.179 | Y -0.864 | M -0.556 | W -0.71 | R -0.31 | V -0.682
A80: K 0.212 | F -0.098 | M -0.101 | I -0.004 | H -0.089 | G 0.014 | E 0.191 | D 0.267 | C -0.015 | V -0.105 | Q -0.029 | Y -0.405 | L -0.239 | T 0.185 | R -0.164 | S 0.088 | N 0.11
